According to patent CN110343173A (INST MICROBIOLOGY CAS, dated 2019):

Assays:
[1] = molecular target: YFV CNYF01/2016 (YFV-China) 毒株膜蛋白E蛋白胞外区, C端6xHis标签, 大肠杆菌表达复性 (yellow fever virus, strain CNYF01/2016 …, UniProt Q1X881 286-683)
[2] = molecular target: YFV China病毒 (E蛋白, 病毒颗粒上) (yellow fever virus, strain CNYF01/2016 …, UniProt Q1X881 286-683); assay: cell-based or functional assay
YFV China病毒 (E蛋白, 病毒颗粒上), sequence (Q1X881 286-683, tags left off): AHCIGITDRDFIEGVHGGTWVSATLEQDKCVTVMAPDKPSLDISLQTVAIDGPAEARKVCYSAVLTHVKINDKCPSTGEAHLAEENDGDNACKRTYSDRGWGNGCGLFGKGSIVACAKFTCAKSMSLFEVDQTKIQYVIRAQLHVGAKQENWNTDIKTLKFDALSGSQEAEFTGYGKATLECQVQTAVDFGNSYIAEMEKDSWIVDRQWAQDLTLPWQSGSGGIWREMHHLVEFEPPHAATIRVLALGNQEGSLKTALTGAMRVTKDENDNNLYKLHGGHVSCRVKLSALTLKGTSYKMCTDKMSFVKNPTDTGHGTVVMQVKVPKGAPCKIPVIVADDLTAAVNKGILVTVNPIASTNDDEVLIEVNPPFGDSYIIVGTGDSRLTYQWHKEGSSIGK

YFV CNYF01/2016 (YFV-China) 毒株膜蛋白E蛋白胞外区, C端6xHis标签, 大肠杆菌表达复性, sequence (Q1X881 286-683, tags left off): as above

B1: 人源单克隆抗体YD73 (antibody, V domains shown)
VH: QVQLVQSGAEVKKPGASVKVSCKASGYTFIAYGISWVRQAPGQGLEWMGWISAHNGNTNYAQKFQGRVTVTTDTTTRTAFMELRNLRSDDTAVYYCARAPWEYNYRSSGYYDSPYWGQGTLVTVSS
VL: EIVLTQSPGTLSLSPGERATLSCRASQSVVSTYLAWYQQKPGQAPRLLIYDTSTRATGIPDRFSGSGSGTDFTLTISRLEPEDFAVYYCQHYDSSPPWTFGQGTKVEIKR
In the case of B1, the Kd [1] is reported as 0.588 nM and the “中和试验 IC50 (Vero细胞感染, FACS检测阳性细胞比例)” value [2] is reported as 3.7 ng/mL.
